Data set [1] has as its target T1, GBV-B NS5B ΔCT19 (Hepatitis GB virus B, UniProt Q69422).
T1 construct: initiator methionine (N); made in house; host or cells: E. coli JM109 (DE3)
T1 sequence (Q69422 2275-2845 limits assumed): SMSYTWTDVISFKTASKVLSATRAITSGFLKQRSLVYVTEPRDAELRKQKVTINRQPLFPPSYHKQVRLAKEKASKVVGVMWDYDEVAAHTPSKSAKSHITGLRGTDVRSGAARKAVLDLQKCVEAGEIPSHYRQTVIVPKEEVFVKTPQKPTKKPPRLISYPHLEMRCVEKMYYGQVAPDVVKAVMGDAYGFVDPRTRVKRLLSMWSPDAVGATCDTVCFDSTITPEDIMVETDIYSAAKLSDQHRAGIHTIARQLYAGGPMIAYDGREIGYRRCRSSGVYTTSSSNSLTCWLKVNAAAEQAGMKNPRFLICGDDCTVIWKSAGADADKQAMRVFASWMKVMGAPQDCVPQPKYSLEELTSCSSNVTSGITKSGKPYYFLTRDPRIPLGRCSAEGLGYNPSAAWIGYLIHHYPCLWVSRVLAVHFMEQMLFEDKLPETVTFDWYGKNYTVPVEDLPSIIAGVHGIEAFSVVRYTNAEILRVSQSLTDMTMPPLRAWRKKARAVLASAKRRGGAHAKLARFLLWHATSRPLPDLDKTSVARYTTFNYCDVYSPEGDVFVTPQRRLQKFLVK
Briefly: Scintillation proximity assay (SPA) of RdRp activity. The class given is biochemical. The method, then:
Scintillation proximity assay (SPA). SPA was used to determine the standard activity of RdRp, and performed under standard conditions as described previously by Ferrari et al., supra. Briefly, reaction mixtures (50 μl in total volume) containing, in addition to other buffer components (20 mM HEPES, pH7.3, 7.5 mM DTT, 10 mM MnCl2, 100 mM NaCl, 50 μg/ml BSA and 2 units of RNasin), 250 ng of poly(C), 25 ng of biotinylated oligo(G)12, 5 μM GTP/ 0.1 μCi of ^3H-GTP and 175 ng of GBV-B NS5B protein were incubated in a 96-well plate at room temperature for 3 hours. The reactions were terminated by addition of 50 μl of 100 mM EDTA in phosphate-buffered saline (PBS), the products were captured by SPA beads coated with streptavidin and ^3H-GMP incorporation was determined with a scintillation counter.

The target in data set [2] is T1, GBV-B NS5B ΔCT19. Kind of data set: RNA-binding (gel-shift) competition assay. The following applies: for affinity order of binding to NS5B ΔCT19: competition with nonradiolabeled RNA homopolymers. As for the experimental part:
RNA-binding assay. The RNA binding assay was performed in a 10 μl reaction mixture containing 20 mM HEPES, pH 7.3, 7.5 mM MnCl2, 7.5 mM DTT, 5% glycerol, 125 mM NaCl, 100 μg per ml of BSA, 1 unit of RNase inhibitor, 100 ng of GBV-B NS5B protein, 1 pmol of an end-labeled RNA probe with the sequence of 5′-U28GGACUU CGGUCC-3′, and increasing amounts of homopolymeric RNA as depicted indicated in FIG. 12. The probe bound most tightly to the GBV-B NS5B among all the RNA probes of similar length tested (data not shown). Following incubation at room temperature for 30 min, the reaction mixture was separated on a nondenaturing 6% polyacrylamide gel at 180 volts for 1.25 hrs in 0.5×TBE buffer. The gel was dried and subjected to autoradiography.

Data set [3] concerns GBV-B NS4A cofactor peptide (4A17; amino acids 20-36 of GBV-B NS4A).
The subject of data set [4] is HCV NS4A cofactor peptide (4A13; aa 22-34 of HCV NS4A).
Data set [5] has as its target T1, GBV-B NS5B ΔCT19. Briefly: Gel-based RdRp assay. Particulars: ZnCl2 0, 1, 2.5, 5, 7.5, 10 μM. The class given is biochemical. The method, then: Gel-based RdRp assay. Standard activity assays were performed in a reaction mixture (40 μl) containing 20 mM HEPES, pH 7.3, 15 mM MnCl2, 100 μM of ATP, UTP, GTP and 10 μCi of α-^33P-CTP, 300 ng of purified protein and 0.2 μg of a 36-base synthetic RNA (5′-GGA25UAUAUAUAU-3′). The sequence of the RNA was designed to form a stem-loop at the 3′-end to support the “copy-back” priming of RNA synthesis. The polymerization reaction was performed at 30° C. for 1 hr and terminated by phenol and chloroform extraction. RNA was ethanol precipitated and separated on a 15% TBE/6 M urea polyacrylamide gel (Novex). The gel was fixed, vacuum dried and subjected to autoradiography.

In data set [6] the test system is GBV-B NS4A 18-mer peptide (amino acids 29-46).
Data set [7] relates to GBV-B NS4A peptide (4A31; aa 16-46 of GBV-B NS4A).
The test system of data set [8] is GBV-B NS4A 15-mer peptide (amino acids 22-36).

With `[Cl][Mn][Cl]` [Mn^2+, MnCl2], the “optimal concentration of divalent cation for polymerase activity” value in data set [1] (titration 0-20 mM) is on record as 15 mM.
As to `[Cl-].[Cl-].[Mg+2]` [Mg^2+, MgCl2], the “ability of divalent cation to support RdRp activity” value in data set [1] (concentrations as high as 20 mM) is reported as “could not replace Mn^2+ to support the activity”.
Take poly (A): the “affinity order of binding to NS5B ΔCT19” value in data set [2] is listed as “poly (U)>poly (G)>poly (A)>poly (C)”.
In the case of poly (C), in data set [2], the “affinity order of binding to NS5B ΔCT19” value is recorded as “poly (U)>poly (G)>poly (A)>poly (C)”.
On to “full-length HCV NS3 protease (HCV His-NS3)”, for which the “trans-cleavage of HCV and GBV-B NS4A/4B substrates by 50 nM HCV NS3 with 100 uM peptide (SDS-PAGE)” value in data set [3] is on record as “protease activation is dependent upon an NS4A cofactor from the same virus (HCV NS3 not activated by the GBV-B NS4A peptide)”. Further, in data set [4], the “trans-cleavage of GBV-B NS4A/4B substrate by HCV NS3 with or without 100 uM peptide (SDS-PAGE)” value is “dose-dependent and NS4A cofactor-enhanced cleavage activity at the NS4A/4B junction site”; the “trans-cleavage of GBV-B NS4A/4B substrate by full-length HCV NS3 with HCV NS4A peptide (SDS-PAGE)” value was “also generated the cleavage products in an HCV NS4A cofactor-dependent manner”; the “trans-cleavage of GBV-B NS5A/5B substrate by HCV NS3 with or without 100 uM peptide (SDS-PAGE)” value was “Cleavage of the GBV-B NS5A/5B site was inefficient and required 10 µM of HCV NS3 protease and was cofactor dependent”; the “trans-cleavage of HCV and GBV-B NS4A/4B substrates by 50 nM HCV NS3 with 100 uM peptide (SDS-PAGE)” value is reported as “protease activation is dependent upon an NS4A cofactor from the same virus (HCV NS3 activated by the HCV NS4A peptide)”.
On to `OCC(O)CO` [Glycerol], for which the “concentration at which RdRp activity is inhibited” value in data set [1] (poly C template, oligoG12 primer) is listed as “higher than 3%”.
Consider `[Cl-].[Cl-].[Zn+2]` [Zn^2+, ZnCl2], for which the “inhibition of GBV-B RdRp activity” value in data set [5] is “inhibits GBV-B RdRp activity at low-micromolar (μM) concentrations”.
Take poly (U): the “competition for binding of NS5B ΔCT19 to labeled RNA probe” value in data set [2] (0.1, 1, 10, 100 x probe) is recorded as “competes most efficiently for binding”. Further, the “affinity order of binding to NS5B ΔCT19” value in data set [2] is recorded as “poly (U)>poly (G)>poly (A)>poly (C)”.
For the compound “full-length GBV-B NS3 protease (GBV-B NS3-His)”, the “cofactor activity: enhancement of cleavage of GBV-B NS4A/4B substrate by 1.5 uM GBV-B NS3 (phosphorimaging)” value (“cofactor activity: enhancement” below) in data set [6] was “did not possess the cofactor activity as it failed to enhance the protease activity”. Further, in data set [7], the “trans-cleavage of GBV-B NS4A/4B substrate by 2 uM GBV-B NS3 with or without 20 uM peptide (SDS-PAGE)” value is reported as “cleavage at the NS4A/NS4B junction by wild type GBV-B NS3 occurs only in the presence of the GBV-B NS4A cofactor”; the “trans-cleavage of GBV-B NS5A/5B substrate by 2 uM GBV-B NS3 with or without 20 uM peptide (SDS-PAGE)” value is “processing at the NS5A/NS5B junction is also NS4A cofactor-dependent”; the “trans-cleavage of in vitro translated HCV NS4A/4B, NS4B/5A and NS5A/5B substrates by GBV-B NS3 with or without 20 uM peptide (SDS-PAGE)” value was “substrate processing was greatly improved by the NS4A peptide”. Also, the “cofactor activity: enhancement” value in data set [8] is on record as “a 15-mer peptide (amino acids 22-36), which is the minimum region that efficiently activates protease activity for trans-cleavage”. In data set [3], the “cofactor activity: enhancement” value is on record as “a 17-mer peptide derived from amino acid 20 to 36 of NS4A retained the cofactor activity”; the “trans-cleavage of HCV (250 nM protease) and GBV-B (2 uM protease) NS4A/4B substrates by GBV-B NS3 with 100 uM peptide (SDS-PAGE)” value was “protease activation is dependent upon an NS4A cofactor from the same virus (GBV-B NS3 activated by the GBV-B NS4A peptide)”. In data set [4], the “trans-cleavage of HCV (250 nM protease) and GBV-B (2 uM protease) NS4A/4B substrates by GBV-B NS3 with 100 uM peptide (SDS-PAGE)” value was “protease activation is dependent upon an NS4A cofactor from the same virus (GBV-B NS3 not activated by the HCV NS4A peptide)”.

Values taken from patent US20010034019A1, “Chimeric HCV/GBV-B viruses” (priority 1999, published 2001).
